Measured values from patent publication US7176277 (BURNHAM INSTITUTE, dated 2007).

Legend:
[1] = biological target: T1, GFP-TR3/ΔDBD (human, UniProt P22736 1-598); experiment: Co-IP
T1 construct: also called GFP-ΔDBD
Description: (§1) The cells were harvested and reporter gene activity was measured. […] Cells were suspended in lysis buffer (50 mM Tris-HCl, PH7.4; 150 mM NaCl; 20 mM EDTA; 1% NP-40; 1 mM PMSF; 50 μg/ml Leupeptin; 20 mg/ml Aprotinin; 0.1 mM Na_3VO_4; and 1 mM DTT). Cells extracts were cleared by incubation with the Protein A/G plus Agarose beads (Santa Cruz) and then incubated with appropriate antibody and 30 μl of Protein A or G plus Agarose beads overnight at 4° C. […] Immunoreactive products were detected by chemiluminescence with an enhanced chemiluminescence system (ECL) (Amersham).

[2] = biological target: T2, Bcl-2 (UniProt P10415 1-239); experiment: Co-IP (result restated in Example 8)
T2 construct: The residue numbers used for the mutants (Tyr108, Leu137, Gly145, Arg146, TM 205-239) fit human Bcl-2 alpha; also called full-length Bcl-2; ^35S-labeled Bcl-2
Description: as §1
A Co-IP assay was performed, as described above.

binding result [1]	binding result [2]	Binder
no binding		Bcl-2/ΔLoop (other, UniProt P10415 1-239, looked up, also called Bcl-2 lacking the loop region) MAHAGRTGYDNREIVMKYIHYKLSQRGYEWDAAGPALSPVPPVVHLTLRQAGDDFSRRYRRDFAEMSSQLHLTPFTARGRFATVVEELFRDGVNWGRIVAFFEFGGVMCVESVNREMSPLVDNIALWMTEYLNRHLHTWIQDNGGWDAFVELYGPSMRPLFDFSWLSLKTLLSLALVGACITLGAYLGHK
	no binding	TR3/ΔDBD/ΔDC1 (other, not shown: large carriers; small tags and cut ends, also called TR3/ΔDBD/DC1; GFP fusion) MPCIQAQYGTPAPSPGPRDHLASDPLTPEFIKPTMDLASPEAAPAAPTALPSFSTFMDGYTGEFDTFLYQLPGTVQPCSSASSSASSTSSSSATSPASASFKFEDFQVYGCYPGPLSGPVDEALSSSGSDYYGSPCSAPSPSTPSFQPPQLSPWDGSFGHFSPSQTYEHVAAVAGEPQPASCLSRLLGKLPELRTLCTQGLQRIFYLKLEDLVPPPPIIDKIFMDTLPF
